Laboratory results as given in patent publication US20110091971A1, “Differentiation of Pluripotent Stem Cells” (priority 2008, published 2011).

System: H1 or H9 human embryonic stem cells
Assay: Activin A bioassay: differentiation of human embryonic stem cells to definitive endoderm, cell number and SOX17 intensity by high content analysis (96-well, four days);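 as to Cell Number average: Raw total cell count per well from high content imaging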;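 as to Sox 17 Intensity average: total fluorescence of the cell multiplied by cell area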
Format: cell-based
In short: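 Read-out was cell count and integrated SOX17 immunofluorescence by high-content imaging, with each well divided by the mean of the 100 ng/ml activin A control. Over the four-day culture, test samples were given in DMEM:F12 with 0.5% FCS plus 20 ng/ml Wnt3a for the first two days and in 2% FCS alone for the last two. Cells were H1 or H9 hESC clusters grown on Matrigel.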

[1] = supernatant concentration 1x, assay dilution 1:20
[2] = supernatant concentration 1x, assay dilution 1:20, control = R&D Sys Activin A 100 ng/ml on same plate
[3] = supernatant concentration 10x, assay dilution 1:20
[4] = supernatant concentration 10x, assay dilution 1:20, control = R&D Sys Activin A 100 ng/ml on same plate
[5] = supernatant concentration 10x, assay dilution 1:40
[6] = supernatant concentration 10x, assay dilution 1:40, control = R&D Sys Activin A 100 ng/ml on same plate
[7] = supernatant concentration 10x, assay dilution 1:20, assay plates #007, #009, #010
[8] = supernatant concentration 50x, assay dilution 1:20, assay plates #008, #009
[9] = supernatant concentration 50x, assay dilution 1:20, control = R&D Sys Activin A 100 ng/ml on same plate
[10] = concentrated supernatant (10x; ACTD3 4x), assay dilution 1:20

Row | Molecule | Cell Number average [1] | Sox 17 Intensity average [1] | Sox 17 Intensity % of control [2] | Cell Number average [3] | Sox 17 Intensity average [3] | Sox 17 Intensity % of control [4] | Cell Number average [5] | Sox 17 Intensity average [5] | Sox 17 Intensity % of control [6] | Cell Number average [7] | Sox 17 Intensity average [7] | Cell Number average [8] | Sox 17 Intensity average [8] | Sox 17 Intensity % of control [9] | Cell Number average [10] | Sox 17 Intensity average [10] | Sox 17 Intensity % of control (concentrated supernatant (10x; ACTD3 4x), assay dilution 1:20, control = R&D Sys Activin A 100 ng/ml)
1 | ACTN89: activin A variant peptide, SEQ ID 90 (protein) GLECDGKVNICCKKQLFGQTKDIGWNDWIIAPSGYHGGGCSGECPSHIAGTSGSSLSFHSTVINHYRMRGHSPNANLKSCCSPTKLRPMSMLYYDDGQNIIKKDIQNMKVEECGCT | 5495 | 3.63E+05 | 1.6% | 5558 | 5.77E+05 | 2.5% | 4474 | 7.23E+05 | 3.2% |  |  |  |  |  |  |  | 
2 | ACTN90: activin A variant peptide, SEQ ID 91 (protein) GLECDGKVNICCKKQSFGQTKDIGWNDWIIAPSGYHGGSCSGECPSHIAGTSGSSLSFHSTVINHYRMRGHSPFANLKSCCSPTKLRPMSMLYYDDGQNIIKKDIQNMKVEECGCT | 1727 | 1.34E+06 | 5.9% | 2819 | 4.13E+05 | 1.8% | 3042 | 1.33E+06 | 5.8% |  |  |  |  |  |  |  | 
3 | ACTN58: activin A variant peptide, SEQ ID 59 (protein) GLECDGKVNICCKKQSFGQTKDIGWNDWIIAPSGYHGGGCTGECPSHIAGTSGSSLSFHSTVINHYRMRGHSPWANLKSCCSPTKLRPMSMLYYDDGQNIIKKDIQNMKVEECGCT |  |  |  |  |  | 3.0% |  |  |  | 11078 | 6.70E+05 | 13214 | 3.78E+06 | 6.8% |  |  | 
4 | ACTN24: activin A variant peptide, SEQ ID 25 (protein) GLECDGKVNLCCKKQDFVSFKDIGWNDWIIAPSGYHANRCSGRCPSHIAGTSGSSLSFHSTVINHYRMRGHSPFSDMGSCCVPTKLRPMSMLYYDDGQNIIKKDIQNMIVEECGCS |  |  |  |  |  | 13.2% |  |  |  | 3261 | 2.91E+06 | 4785 | 1.04E+07 | 18.8% |  |  | 
5 | ACTN30: activin A variant peptide, SEQ ID 31 (protein) GLECDGKVNYCCKKQNFVSFKDIGWNDWIIAPSGYHANKCSGLCPSHIAGTSGSSLSFHSTVINHYRMRGHSPFSKMGACCVPTKLRPMSMLYYDDGQNIIKKDIQNMIVEECGCS |  |  |  |  |  | 3.0% |  |  |  | 7357 | 6.73E+05 | 5013 | 2.87E+06 | 5.2% |  |  | 
6 | ACTN34: activin A variant peptide, SEQ ID 35 (protein) GLECDGKVNYCCKKQLFVSFKDIGWNDWIIAPSGYHANHCTGKCPSHIAGTSGSSLSFHSTVINHYRMRGHSPFSDLGSCCVPTKLRPMSMLYYDDGQNIIKKDIQNMIVEECGCS |  |  |  |  |  | 257.4% |  |  |  | 10063 | 5.69E+07 | 12163 | 1.47E+08 | 266.9% | 11794 | 8.08E+07 | 185%
7 | ACTN26: activin A variant peptide, SEQ ID 27 (protein) GLECDGKVNLCCKKQHFVSFKDIGWNDWIIAPSGYHANRCDGKCPSHIAGTSGSSLSFHSTVINHYRMRGHSPFANMGACCIPTKLRPMSMLYYDDGQNIIKKDIQNMIVEECGCS |  |  |  |  |  | 2.7% |  |  |  | 4250 | 5.92E+05 | 5043 | 4.78E+06 | 8.6% |  |  | 
8 | ACTN33: activin A variant peptide, SEQ ID 34 (protein) GLECDGKVNLCCKKQNFVSFKDIGWNDWIIAPSGYHANECMGKCPSHIAGTSGSSLSFHSTVINHYRMRGHSPFSDMGACCIPTKLRPMSMLYYDDGQNIIKKDIQNMIVEECGCS |  |  |  |  |  | 9.7% |  |  |  | 3588 | 2.15E+06 | 3383 | 6.50E+06 | 11.8% |  |  | 
9 | ACTN29: activin A variant peptide, SEQ ID 30 (protein) GLECDGKVNLCCKKQLFVSFKDIGWNDWIIAPSGYHANHCSGKCPSHIAGTSGSSLSFHSTVINHYRMRGHSPFSDMGSCCIPTKLRPMSMLYYDDGQNIIKKDIQNMIVEECGCS |  |  |  |  |  | 232.0% |  |  |  | 8943 | 5.13E+07 | 8835 | 1.03E+08 | 186.2% |  |  | 
10 | ACTN31: activin A variant peptide, SEQ ID 32 (protein) GLECDGKVNTCCKKQLFVSFKDIGWNDWIIAPSGYHANHCSGKCPSHIAGTSGSSLSFHSTVINHYRMRGHSPFSDMGSCCIPTKLRPMSMLYYDDGQNIIKKDIQNMIVEECGCS |  |  |  |  |  | 246.3% |  |  |  | 10450 | 5.44E+07 | 11148 | 1.49E+08 | 269.7% |  |  | 
11 | ACTN25: activin A variant peptide, SEQ ID 26 (protein) GLECDGKVNLCCKKQNFVSFKDIGWNDWIIAPSGYHANECSGLCPSHIAGTSGSSLSFHSTVINHYRMRGHSPFSQMGSCCIPTKLRPMSMLYYDDGQNIIKKDIQNMIVEECGCS |  |  |  |  |  | 16.1% |  |  |  | 5043 | 3.55E+06 | 4620 | 1.52E+07 | 27.6% |  |  | 
12 | ACTN37: activin A variant peptide, SEQ ID 38 (protein) GLECDGKVNLCCKKQDFVSFKDIGWNDWIIAPSGYHANRCSGKCPSHIAGTSGSSLSFHSTVINHYRMRGHSPFSDMGACCIPTKLRPMSMLYYDDGQNIIKKDIQNMIVEECGCS |  |  |  |  |  | 6.1% |  |  |  | 3957 | 1.35E+06 | 2902 | 5.89E+06 | 10.6% |  |  | 
13 | ACTN2: activin A variant peptide, SEQ ID 3 (protein) GLECDGKVNLCCKKQNFVSFKDIGWNDWIIAPSGYHANECTGKCPSHIAGTSGSSLSFHSTVINHYRMRGHSPFSDLGSCCIPTKLRPMSMLYYDDGQNIIKKDIQNMIVEECGCS | 4057 | 1.756E+07 | 9.5% | 2965 | 2.299E+07 | 12.5% | 2232 | 1.280E+07 | 7.0% |  |  |  |  |  |  |  | 
